This note sets out measurements from US20260116958A1 (University of California, published 2026).

For experiment [1], the target named is T1, active BoNT/G holotoxin (Clostridium botulinum, UniProt Q60393 2-1297).
T1 sequence: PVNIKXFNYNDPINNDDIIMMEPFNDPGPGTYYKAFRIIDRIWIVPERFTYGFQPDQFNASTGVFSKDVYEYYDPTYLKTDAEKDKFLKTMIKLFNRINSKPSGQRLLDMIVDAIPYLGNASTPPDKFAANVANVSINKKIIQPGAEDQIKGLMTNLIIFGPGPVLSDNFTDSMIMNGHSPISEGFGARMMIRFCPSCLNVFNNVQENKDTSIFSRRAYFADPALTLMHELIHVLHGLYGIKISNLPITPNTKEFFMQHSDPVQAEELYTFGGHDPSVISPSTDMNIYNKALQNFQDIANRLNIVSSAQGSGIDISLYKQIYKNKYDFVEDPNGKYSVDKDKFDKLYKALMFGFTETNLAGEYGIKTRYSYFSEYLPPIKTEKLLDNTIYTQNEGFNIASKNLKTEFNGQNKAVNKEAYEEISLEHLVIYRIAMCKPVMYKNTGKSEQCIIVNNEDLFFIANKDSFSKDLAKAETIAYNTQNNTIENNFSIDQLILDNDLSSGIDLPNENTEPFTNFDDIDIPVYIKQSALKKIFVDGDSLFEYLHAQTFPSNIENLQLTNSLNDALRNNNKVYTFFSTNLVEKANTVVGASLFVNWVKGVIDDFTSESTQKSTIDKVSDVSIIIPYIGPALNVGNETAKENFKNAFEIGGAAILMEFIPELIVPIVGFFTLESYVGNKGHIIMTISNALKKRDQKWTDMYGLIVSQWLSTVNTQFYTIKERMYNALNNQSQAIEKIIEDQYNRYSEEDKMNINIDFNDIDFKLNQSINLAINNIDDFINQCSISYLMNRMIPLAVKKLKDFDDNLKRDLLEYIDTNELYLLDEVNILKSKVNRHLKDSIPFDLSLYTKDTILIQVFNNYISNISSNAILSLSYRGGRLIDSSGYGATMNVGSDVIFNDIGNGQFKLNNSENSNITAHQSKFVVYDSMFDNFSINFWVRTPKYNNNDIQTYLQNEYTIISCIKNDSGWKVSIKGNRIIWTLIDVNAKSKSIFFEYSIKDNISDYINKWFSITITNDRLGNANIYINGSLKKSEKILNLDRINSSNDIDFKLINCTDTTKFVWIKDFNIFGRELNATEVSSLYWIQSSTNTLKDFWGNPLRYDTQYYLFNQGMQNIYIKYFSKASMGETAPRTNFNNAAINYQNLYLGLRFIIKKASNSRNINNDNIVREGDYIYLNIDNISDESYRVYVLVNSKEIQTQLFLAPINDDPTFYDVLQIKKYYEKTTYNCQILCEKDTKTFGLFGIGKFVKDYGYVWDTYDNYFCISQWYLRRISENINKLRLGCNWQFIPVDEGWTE
Put plainly: KinExA, IgG. A general note: Kinetic exclusion samples the free partner from a solution-phase mixture.

In experiment [2] the target is T1, active BoNT/G holotoxin. Put plainly: KinExA, IgG; 'affinity to the active BoNT/G holotoxin'.
For experiment [3], the target named is T2, inactive BoNT/G (BoNT/Gi) (Clostridium botulinum, UniProt Q60393 1-1297).
T2 sequence: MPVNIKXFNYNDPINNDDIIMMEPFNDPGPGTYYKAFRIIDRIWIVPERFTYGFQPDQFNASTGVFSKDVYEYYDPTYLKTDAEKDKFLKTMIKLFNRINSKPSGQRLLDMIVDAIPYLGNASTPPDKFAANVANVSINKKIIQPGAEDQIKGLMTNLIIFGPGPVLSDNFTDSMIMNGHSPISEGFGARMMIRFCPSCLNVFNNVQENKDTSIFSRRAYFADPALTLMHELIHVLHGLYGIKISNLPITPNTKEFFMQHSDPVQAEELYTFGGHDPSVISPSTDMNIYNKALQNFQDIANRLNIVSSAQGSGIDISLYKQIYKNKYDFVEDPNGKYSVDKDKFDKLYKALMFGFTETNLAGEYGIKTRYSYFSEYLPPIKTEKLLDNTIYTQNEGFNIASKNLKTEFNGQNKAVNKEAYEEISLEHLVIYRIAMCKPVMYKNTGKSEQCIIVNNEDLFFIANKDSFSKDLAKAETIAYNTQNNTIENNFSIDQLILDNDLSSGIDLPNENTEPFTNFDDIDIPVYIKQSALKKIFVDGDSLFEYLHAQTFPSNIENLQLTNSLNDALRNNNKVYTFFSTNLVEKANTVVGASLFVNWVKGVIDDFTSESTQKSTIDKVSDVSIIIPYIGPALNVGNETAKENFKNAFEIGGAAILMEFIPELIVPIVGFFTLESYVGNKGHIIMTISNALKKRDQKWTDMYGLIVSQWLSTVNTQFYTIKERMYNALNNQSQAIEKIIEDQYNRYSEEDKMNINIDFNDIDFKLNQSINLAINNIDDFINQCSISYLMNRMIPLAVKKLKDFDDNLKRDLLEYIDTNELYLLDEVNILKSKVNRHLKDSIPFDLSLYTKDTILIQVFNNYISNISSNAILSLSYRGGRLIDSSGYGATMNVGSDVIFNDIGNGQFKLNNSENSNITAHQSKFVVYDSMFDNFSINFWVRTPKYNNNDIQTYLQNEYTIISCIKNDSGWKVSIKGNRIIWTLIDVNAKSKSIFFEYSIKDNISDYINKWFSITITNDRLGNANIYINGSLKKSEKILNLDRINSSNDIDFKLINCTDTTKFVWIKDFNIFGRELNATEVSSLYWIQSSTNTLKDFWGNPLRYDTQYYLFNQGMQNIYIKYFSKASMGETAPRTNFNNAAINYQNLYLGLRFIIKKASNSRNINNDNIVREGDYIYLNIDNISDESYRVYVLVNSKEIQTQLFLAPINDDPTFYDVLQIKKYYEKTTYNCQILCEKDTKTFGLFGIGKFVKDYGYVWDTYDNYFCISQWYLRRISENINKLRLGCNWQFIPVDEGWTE
Put plainly: scFv on yeast surface.

Experiment [4] has as its target T2, inactive BoNT/G (BoNT/Gi). In words: FACS, scFv on yeast.
Experiment [5] concerns the target T2, inactive BoNT/G (BoNT/Gi). Put plainly: flow cytometry, scFv on yeast.
Experiment [6] has as its target T2, inactive BoNT/G (BoNT/Gi). In words: titration on yeast-displayed scFv, flow cytometry, fit y = m1 + m2*M0/(m0+m3). (In flow cytometry, cells or beads pass a laser one at a time.)
Experiment [7] concerns the target T2, inactive BoNT/G (BoNT/Gi). The description is as above. This is another data set of the same source.
Experiment [8] deals with T2, inactive BoNT/G (BoNT/Gi). Described as above. This is another data set of the same source.
The target of experiment [9] is T2, inactive BoNT/G (BoNT/Gi). Described as above. This is another data set of the same source.

B1: Hu6G7.2 IgG (antibody, V domains shown)
VH: QVQLVQSGAEVKKPGASVKVSCKASDYSFTDYNIYWVRQTPGQGLEWIGYIDPYNGGTSYNQKFKGRATLTVDKSISTAYMELSRLRSDDTAVYYCALYGYDPDYTEYWGQGTTLTVSS
VL: DIVLTQSPASMAVSPGQRVTITCSASSSVSYLHWFQQKPGQSPKLWIYSTSNLASGVPARFSGSGSGTDYTLTINPMEAEDTATYYCQQRSSYPYTFGQGTKLEIKR
As a reminder, the Kd is the concentration at which binding is half-saturated. For B1, the dissociation constant (Kd) in experiment [1] and in experiment [2] was 0.051 nM in each case.

B2: 6G7.1 scFv (scFv, V domains shown)
VH: DVQLQESGPELVKPGASVKVSCKASDYSFTDYNIYWVKQSHGKSLEWIGYIDPYNGGTSYNQKFKGKATLTVDKSSSTAFMYLNSLTSEDSAVYYCALYGYDPDYIDYWGQGTTLTVSS
VL: QIVLTQSPAIMSASPGEKVTITCSASSSVSYLHWFQQKPGTSPKLWIYSTSNLASGVPARFSGSGSGTSYSLTISRMEAEDAATYYCQQRSSYPYTFGGGTKLEIKA
For the molecule B2, the equilibrium dissociation constant (Kd) in [3] was determined as 0.69 nM; in [4] it was 0.27 nM; in experiment [5], 2.1 nM; in experiment [6], 1.29 nM; in experiment [7], 0.27 nM.

B3: 6G10 scFv (scFv, V domains shown)
VH: EVQLQQSGPELVKPGASVKISCKASGYSFTGYFMHWVKQSHVKSLEWIGRINPYNGDIIYNQNFKDKASLTVDKSSSTAYMELHSLTSEDSAVYYCASLFGLYYFDYWGQGTTLTVSS
VL: EIVLTQSPAIMSASPGEKVTMTCSASSSVSYMHWYQQKSGTSPKRWIYDTSKLASGVPARFSGSGSGTSYSLTISSMEAEDAATYYCQQWSSNPLTFGAGTKLELKR
B3: the Kd in [4] and in [8] was 2.48 nM in each case.

B4: 6G9 scFv (scFv, V domains shown)
VH: EVQLQQSGDDLVKPGASVKMSCKASGYTFTSYWMHWVKQRPGQGLEWIGYINPSTGYTEYNQKFKDKATLTADKSSSTAYMQLSSLTSEDSAVYYCARGGNYVDYWGQGTTLTVSS
VL: EIVLTQSPAIMSASPGEKVTISCSASSSVSYMYWYQQKPGSSPKPWIYRTSNLASGVPARFSGSGSGTSYSLTISSMEAEDAATYYCQQWSSNPYTFGGGTKLEIKR
B4: the Kd in experiment [4] came out at 18.8 nM; in [9], 5.6 nM.
